The target in experiment [1] is L19 IgG-DnaEN after PTS (trans-spliced with DnaEC peptide without a probe) (human). Briefly: SPR; Biacore T100; L19 IgG or modified versions immobilised on a CM5 chip treated with antibody capture kit; soluble Fc receptor fragments as analytes at 1.56 - 50 nM; association and dissociation kinetics used to calculate the dissociation constant.
The target of experiment [2] is L19 IgG control antibody (unmodified, without linker) (human). The experiment is described as above.
Sequence of L19 IgG control antibody (unmodified, without linker) (human) (heavy, as listed by the source, chain 1 of 2): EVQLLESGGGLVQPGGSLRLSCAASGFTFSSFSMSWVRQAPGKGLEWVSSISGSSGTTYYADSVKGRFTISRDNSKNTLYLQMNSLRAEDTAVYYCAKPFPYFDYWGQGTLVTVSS
Sequence of L19 IgG control antibody (unmodified, without linker) (human) (light, as listed by the source, chain 2 of 2): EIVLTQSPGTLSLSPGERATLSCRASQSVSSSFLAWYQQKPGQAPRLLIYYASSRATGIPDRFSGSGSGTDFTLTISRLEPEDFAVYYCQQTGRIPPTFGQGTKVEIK
In experiment [3] the target is L19 IgG-GyrA after EPL (cleaved with Mesna, cysteine as probe) (human). Described as above.
Sequence of L19 IgG-GyrA after EPL (cleaved with Mesna, cysteine as probe) (human) (heavy, as listed by the source, chain 1 of 2): as the sequence (heavy, as listed by the source, chain 1 of 2) above
Sequence of L19 IgG-GyrA after EPL (cleaved with Mesna, cysteine as probe) (human) (light, as listed by the source, chain 2 of 2): as the sequence (light, as listed by the source, chain 2 of 2) above
For experiment [4], the target named is L19 IgG after EPL (L19 IgG-GyrA cleaved with Mesna and derivatized with cysteine) (human). Briefly: SPR; Biacore T100; L19 IgG or modified versions immobilized on a CM5 chip treated with antibody capture kit; soluble Fc receptor fragments 1.56 - 50 nM as analytes; KD calculated from association and dissociation kinetics.
Sequence of L19 IgG after EPL (L19 IgG-GyrA cleaved with Mesna and derivatized with cysteine) (human) (heavy, as listed by the source, chain 1 of 2): as the sequence (heavy, as listed by the source, chain 1 of 2) above
Sequence of L19 IgG after EPL (L19 IgG-GyrA cleaved with Mesna and derivatized with cysteine) (human) (light, as listed by the source, chain 2 of 2): as the sequence (light, as listed by the source, chain 2 of 2) above
Experiment [5] addresses L19 IgG after PTS (L19 IgG-DnaEN trans-spliced with DnaEC peptide without a probe) (human). The experiment is described as above.

Sequence of L19 IgG-DnaEN after PTS (trans-spliced with DnaEC peptide without a probe) (human) (heavy, as listed by the source, chain 1 of 2): as the sequence (heavy, as listed by the source, chain 1 of 2) above
Sequence of L19 IgG-DnaEN after PTS (trans-spliced with DnaEC peptide without a probe) (human) (light, as listed by the source, chain 2 of 2): as the sequence (light, as listed by the source, chain 2 of 2) above
Sequence of L19 IgG after PTS (L19 IgG-DnaEN trans-spliced with DnaEC peptide without a probe) (human) (heavy, as listed by the source, chain 1 of 2): as the sequence (heavy, as listed by the source, chain 1 of 2) above
Sequence of L19 IgG after PTS (L19 IgG-DnaEN trans-spliced with DnaEC peptide without a probe) (human) (light, as listed by the source, chain 2 of 2): as the sequence (light, as listed by the source, chain 2 of 2) above

As for “Fcγ RI/CD64, soluble Fc receptor fragment (from UniProt P12314 16-292)”, in experiment [1], the Kd is 0.21 nM, the koff is 0.000201 s⁻¹ and the kon was 960000 M⁻¹ s⁻¹. In experiment [2], the Kd was 0.17 nM, the koff was 0.000168 s⁻¹ and the kon was 1.02e+06 M⁻¹ s⁻¹. Moreover, in experiment [3], the dissociation constant Kd is 0.13 nM, the koff is 0.000145 s⁻¹ and the kon was 1.11e+06 M⁻¹ s⁻¹.
As to “soluble Fc receptor fragment Fcγ RIIIA/CD16a (from UniProt P08637 17-208)”, the Kd in experiment [4] and in experiment [5] was 60 nM throughout.

What is called Kd is the free concentration of one partner at which half of the binding sites on the other are occupied at equilibrium, for simple one-to-one binding. The koff is the rate constant with which the complex falls apart. As a reminder, the kon is the second-order rate constant of association.

(Values after article PMC3154154.)
